# Assay results published in patent publication US20240287172A1 (SCIRHOM, published 2024).
# Where a chain is given by its changes, count along the chain named.
# T1: hiR2-FL-Q527P-T7 (human, UniProt Q6PJF5 1-856)
# T1 sequence: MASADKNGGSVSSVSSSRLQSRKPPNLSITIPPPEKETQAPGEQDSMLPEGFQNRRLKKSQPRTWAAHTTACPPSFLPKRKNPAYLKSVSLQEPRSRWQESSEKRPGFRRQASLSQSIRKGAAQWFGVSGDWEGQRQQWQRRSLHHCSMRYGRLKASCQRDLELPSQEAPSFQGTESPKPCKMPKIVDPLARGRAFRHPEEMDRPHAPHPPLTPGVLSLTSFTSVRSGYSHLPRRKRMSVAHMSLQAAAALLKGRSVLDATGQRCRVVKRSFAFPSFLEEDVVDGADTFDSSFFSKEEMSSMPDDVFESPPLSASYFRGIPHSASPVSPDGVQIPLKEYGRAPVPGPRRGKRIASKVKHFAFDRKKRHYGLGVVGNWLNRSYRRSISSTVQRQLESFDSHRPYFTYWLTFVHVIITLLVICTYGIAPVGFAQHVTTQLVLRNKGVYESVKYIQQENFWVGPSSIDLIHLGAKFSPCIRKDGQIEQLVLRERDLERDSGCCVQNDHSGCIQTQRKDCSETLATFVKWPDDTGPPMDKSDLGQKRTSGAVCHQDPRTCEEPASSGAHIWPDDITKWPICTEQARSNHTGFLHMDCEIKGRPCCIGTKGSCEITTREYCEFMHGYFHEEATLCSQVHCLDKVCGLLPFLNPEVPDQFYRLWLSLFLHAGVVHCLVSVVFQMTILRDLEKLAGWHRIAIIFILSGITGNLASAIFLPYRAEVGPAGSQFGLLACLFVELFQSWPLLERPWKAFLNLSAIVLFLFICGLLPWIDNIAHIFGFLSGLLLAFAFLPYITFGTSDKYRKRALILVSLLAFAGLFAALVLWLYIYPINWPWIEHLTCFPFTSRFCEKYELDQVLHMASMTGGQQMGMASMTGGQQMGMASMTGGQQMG
# B1: antibody 48 (antibody, V domains shown)
# VH: QVQLQQSGTELVRPGTSVKVSCKASGYAFTNYLIEWVKQRPGQGLEWIGVINPGSGFTKYNEKFKGKATLTADKSSSTVYMHLSSLTSEDSAVYFCARGLYRAMDYWGQGTSVTVSS
# VL: DIQMTQSPASQSASLGESVTITCLASQTIATWLAWYQQKPGKSPQLLIYGATTLADGVPSRFSGGGSGTKFSFKISSLQAEDFVSYYCQQLYSTPYTFGGGTKLEIK
# notes: mouse IgG, kappa light chain; also called clone #48; purified antibody 48
# B2: antibody 50 (antibody, V domains shown)
# VH: B1 VH with T9A, T16A, T30S, V79A, H82Q
# VL: B1 VL with A30G, G50A, T52A, T53S, S85N, L91I
# notes: mouse IgG, kappa light chain; also called clone #50; purified antibody 50
# B3: antibody 3 (antibody, V domains shown)
# VH: QVTLKESGPGILQPSQTLSLTCSFSGFSLTTFAMGIGWVRQPSGKGLEWLAHIWWDGEKYNNPVLKSRLTISKDTSKNQVFLRIANVDTPDTATYYCARISSIYYIIDNWGQGTSVTVSS
# VL: DIVLTQSPATLSVTPGHSVSLSCRASQSISNNLHWYQKKSHESPRLLIKYVSQSISGIPSRFSGSGSGTDFTLSINSVETEDFGMYFCQQSYNWPLTFGAGTKLELK
# notes: mouse IgG, kappa light chain; also called clone #3; purified antibody 3
# B4: antibody 5 (antibody, V domains shown)
# VH: QVTLKESGPGILQPSQTLSLTCSFSGFSLSTFGMGVGWIRQPSGKGLEWLAHIWWDDEKYYNSALKSRLTISKATSKNQAFLKIANVDTADTATYYCARISNYGSNYWYFNVWGTGTTVTVSS
# VL: QVVLTQSPALMSASPGEKVTMTCSAGSSVSCMYWYQQKPGSSPRVLIYDTSNLASGVPARFTGSGSGTSYSLTISRMEAEDAASYYCQQWNSYPLTFGAGTKLELK
# notes: mouse IgG, kappa light chain; also called clone #5; purified antibody 5
# B5: antibody 43 (antibody, V domains shown)
# VH: B4 VH with T3A, P42S, H52N, E58D, S63P, A74D, T75A, S101G, N111D
# VL: QIVLTQSPAIMSASPGERVTMTCSANSRISYMYWYQQKPGSSPRLLIYDTSNLASGVPVRFSGSGSGTSYSLTISRMEAEDAATYNCQQWSSYPLTFGAGTKLELK
# notes: mouse IgG, kappa light chain; also called clone #43; purified antibody 43
# B6: antibody 42 (antibody, V domains shown)
# VH: B4 VH with F24L, M34R, S63P, A74D, A80V, K83R, S101Q, N111D
# VL: B5 VL with Q1L, R18K, S24G, N26T, Y33F, L45V, M77V, A82V, N86Y, S91N
# notes: mouse IgG, kappa light chain; also called clone #42; purified antibody 42
# B7: antibody 44 (antibody, V domains shown)
# VH: B4 VH with G44E, E58D, S63P, A74D, A80I, A85T, D91E, A98S, S101G, N111D
# VL: QIVLTQSPAVMSASPGEKVTMTCTASSSVYYMYWYQQTPGSSPRLLIYDTSNLASGVPVRFSGSGSGTSYSLTISRMEAEDAATYYCQQWNTYPLTFGAGTKLELK
# notes: mouse IgG, kappa light chain; also called clone #44; purified antibody 44
# Target: T1, hiR2-FL-Q527P-T7
# Assay: FACS, MEF-DKO cells, 3 µg/ml
row,Binder,loss of binding vs wild type [%]
1,B1,≥ 30
2,B2,≥ 30
3,B3,≥ 30
4,B4,≥ 60
5,B5,≥ 60
6,B6,≥ 30
7,B7,≥ 60
